Assay results reported in doi:10.1101/2025.04.02.646771.

Biological target: Leminorella grimontii GatC (Leminorella grimontii)
Experiment: crystal structure

stoichiometry N: 2
Substance: Leminorella grimontii GatC (natural protein)
